Reference: US20220332804A1 (CSL INNOVATION, published 2022)
Substitutions are numbered along the chain they refer to.

Columns and labels:
Assay in all cases: SPR, antibody captured, C2 as analyte;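 also: biacore SPR at 37 °C, anti-C2 mAbs captured via goat anti-human IgG on CM5 chips, double-referenced sensorgrams fit to a 1:1 kinetic or steady-state model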
[1] = molecular target: T1, human C2 F437A (human, UniProt P06681 21-752)
T1 sequence: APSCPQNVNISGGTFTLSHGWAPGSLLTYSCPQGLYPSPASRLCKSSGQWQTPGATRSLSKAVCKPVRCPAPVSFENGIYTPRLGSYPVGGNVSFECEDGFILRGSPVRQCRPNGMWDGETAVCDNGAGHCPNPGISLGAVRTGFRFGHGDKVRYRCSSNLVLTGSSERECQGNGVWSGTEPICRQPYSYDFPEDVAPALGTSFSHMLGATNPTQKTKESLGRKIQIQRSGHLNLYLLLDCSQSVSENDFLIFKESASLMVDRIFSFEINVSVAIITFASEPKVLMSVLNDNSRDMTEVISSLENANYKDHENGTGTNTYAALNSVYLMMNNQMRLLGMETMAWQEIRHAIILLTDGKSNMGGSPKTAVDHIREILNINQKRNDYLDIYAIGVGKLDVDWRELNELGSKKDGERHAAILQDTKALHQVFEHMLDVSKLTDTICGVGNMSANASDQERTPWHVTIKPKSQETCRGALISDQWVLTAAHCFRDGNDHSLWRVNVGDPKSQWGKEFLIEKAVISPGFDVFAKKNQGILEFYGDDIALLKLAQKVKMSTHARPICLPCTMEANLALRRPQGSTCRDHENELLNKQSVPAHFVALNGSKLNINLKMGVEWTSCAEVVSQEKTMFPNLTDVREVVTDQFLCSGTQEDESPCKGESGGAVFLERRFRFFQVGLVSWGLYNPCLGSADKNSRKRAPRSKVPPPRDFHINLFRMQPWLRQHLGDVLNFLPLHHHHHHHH
Procedure: (§1) Surface plasmon resonance (SPR, Biacore) was used for all binding affinity analyses. In brief, goat anti-human IgG was directly immobilised onto the carboxymethyl dextran surface of CM5 sensorchips to approximately 12,000 RU using standard NHS/EDC chemistry at pH 5. The immobilised antibody surface was pre-conditioned with ten injections of polyclonal human IgG (Privigen 60 s) prepared at 1 μg/mL. Ligands (anti-C2 mAbs) were captured at the beginning of each cycle as described below. An adjacent spot or flow cell in which only Polyclonal IgG was capture was used as a reference surface. The goat anti-human IgG Fc antibody surface was regenerate in 100 mM H3PO4, injected for 45 seconds at the end of each cycle. Experiments were performed at 37° C. and the flow rate of each experiment was kept constant at 30 μL/min.
(§2) Sensogram data was double-referenced against a reference anti-IgG surface (i.e. minus anti-C2 mAb) and blank buffer injections obtained within each experiment. The binding data was fit to 1:1 (kinetic or steady-state) model using local Rmax and null refraction index (RI=0) when appropriate. Buffers and solutions were filtered (0.22 μm) prior to use.

[2] = molecular target: T2, human C2 S469A (human, UniProt P06681 21-752)
T2 sequence: T1 sequence with A417F, S449A
Procedure: as §1, §2

[3] = molecular target: T3, human C2 T491A (human, UniProt P06681 21-752)
T3 sequence: T1 sequence with A417F, T471A
Procedure: as §1, §2

[4] = molecular target: T4, human C2 N403A (human, UniProt P06681 21-752)
T4 sequence: T1 sequence with N383A, A417F
Procedure: as §1, §2

B1: RF16-226 (antibody, human IgG4 S228P, lambda)
heavy: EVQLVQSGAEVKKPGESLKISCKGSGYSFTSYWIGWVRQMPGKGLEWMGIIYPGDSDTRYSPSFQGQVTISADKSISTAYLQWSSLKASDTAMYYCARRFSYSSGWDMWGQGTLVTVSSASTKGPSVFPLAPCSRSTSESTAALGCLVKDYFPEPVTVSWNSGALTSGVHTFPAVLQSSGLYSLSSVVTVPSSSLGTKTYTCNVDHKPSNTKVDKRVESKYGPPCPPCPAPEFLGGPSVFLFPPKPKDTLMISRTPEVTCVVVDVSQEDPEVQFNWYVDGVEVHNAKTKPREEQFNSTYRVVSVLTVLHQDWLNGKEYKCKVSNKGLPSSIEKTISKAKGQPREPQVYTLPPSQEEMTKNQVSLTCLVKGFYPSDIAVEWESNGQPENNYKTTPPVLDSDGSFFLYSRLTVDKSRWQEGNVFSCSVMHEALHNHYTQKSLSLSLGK
light: SYELTQPPSVSVSPGQTARITCSGDALTSKYVAWYQQKSGLAPLLVIYEDTRRPSGIPAKFSGSSSGSVATLTISGAHGDDEADYYCYSTDASGHQRVFGGGTKLTVLSQPKAAPSVTLFPPSSEELQANKATLVCLISDFYPGAVTVAWKADGSPVKAGVETTKPSKQSNNKYAASSYLSLTPEQWKSHRSYSCQVTHEGSTVEKTVAPTECS
notes: pH-dependent anti-C2 antibody from a phage display library; also called WT
Kd [1]: 260 nM | Kd [2]: 28.2 nM | Kd [3]: 15.5 nM | Kd [4]: 10.5 nM
